# B1: CODA1157: engineered receptor: Q139E, S172D in SEQ ID NO: 33 (protein)
# chain: MRCSPGGVWLALAASLLHVSLQGEFQRKLYKELVKNYNPLERPVANDSQPLTVYFSLSLLQIMDVDEKNQVLTTNIWLQMSWTDHYLQWNVSEYPGVKTVRFPDGQIWKPDILLYNSADERFDATFHTNVLVNSSGHCEYLPPGIFKSSCPMDLKNFPMDVQTCKLKFGSWDYGGWSLDLQMQEADISGYIPNGEWDLVGIPGKRSERFYECCKEPYPDVTFTVTMRRRMGYYLIQMYIPSLLIVILSWISFWINMDAAPARVGLGITTVLTMTTQSSGSRASLPKVSYVKAIDIWMAVCLLFVFSALLEYAAVNFVSRQHKELLRFRRKRRHHKSPMLNLFQEDEAGEGRFNFSAYGMGPACLQAKDGISVKGANNSNTTNPPPAPSKSPEEMRKLFIQRAKKIDKISRIGFPMAFLIFNMFYWIIYKIVRREDVHNQ
# modifications: synthetic sequence of chimeric LGIC
# B2: CODA1173: engineered receptor: S172D, Y210W in SEQ ID NO: 33 (protein)
# chain: MRCSPGGVWLALAASLLHVSLQGEFQRKLYKELVKNYNPLERPVANDSQPLTVYFSLSLLQIMDVDEKNQVLTTNIWLQMSWTDHYLQWNVSEYPGVKTVRFPDGQIWKPDILLYNSADERFDATFHTNVLVNSSGHCQYLPPGIFKSSCPMDLKNFPMDVQTCKLKFGSWDYGGWSLDLQMQEADISGYIPNGEWDLVGIPGKRSERFWECCKEPYPDVTFTVTMRRRMGYYLIQMYIPSLLIVILSWISFWINMDAAPARVGLGITTVLTMTTQSSGSRASLPKVSYVKAIDIWMAVCLLFVFSALLEYAAVNFVSRQHKELLRFRRKRRHHKSPMLNLFQEDEAGEGRFNFSAYGMGPACLQAKDGISVKGANNSNTTNPPPAPSKSPEEMRKLFIQRAKKIDKISRIGFPMAFLIFNMFYWIIYKIVRREDVHNQ
# modifications: synthetic sequence of chimeric LGIC
# Test system: engineered chimeric receptor SEQ ID NO: 33 and its mutants (human α7-nAChR ligand binding domain / human GlyRα1 ion pore domain) in Lenti-X 293T cells
# Experiment: YFP fluorescence quenching anion reporter plate reader assay (percent quench, EC50)
# Type: cell-based
# Conditions: for YFP fluorescence quenching using CNL001 (percent quench): receptor named in row; for YFP fluorescence quenching using Varenicline, 3 nM var: ligand Varenicline 3 nM; for YFP fluorescence quenching using Varenicline, 30 nM var: ligand Varenicline 30 nM; for YFP fluorescence quenching using Varenicline, 300 nM var: ligand Varenicline 300 nM; for YFP fluorescence quenching using Varenicline, 500 nM var: ligand Varenicline 500 nM; for YFP fluorescence quenching using Varenicline, 1 uM var: ligand Varenicline 1 uM
# How it was run: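 Lenti-X 293T cells co-expressing an anion-quenchable YFP were transiently transfected with receptor DNA, then ligand was added in NaI-substituted buffer (pH 7.2) after 30 min at 37 °C. Fluorescence was read about 2 min; percent quench = mean of last 10 s over 15 s pre-ligand baseline.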
# [1] = 1 nM CNL001, first column so headed
# [2] = 1 nM CNL001, second column so headed
# [3] = 10 nM CNL001, first column so headed
# [4] = 10 nM CNL001, second column so headed
# [5] = 50 nM CNL001, first column so headed
# [6] = 50 nM CNL001, second column so headed
# [7] = 100 nM CNL001, first column so headed
# [8] = 100 nM CNL001, second column so headed
# [9] = 1 uM CNL001, first column so headed
# [10] = 1 uM CNL001, second column so headed
Molecule,YFP fluorescence quenching using CNL001 (percent quench) [1] [%],YFP fluorescence quenching using CNL001 (percent quench) [2] [%],YFP fluorescence quenching using CNL001 (percent quench) [3] [%],YFP fluorescence quenching using CNL001 (percent quench) [4] [%],YFP fluorescence quenching using CNL001 (percent quench) [5] [%],YFP fluorescence quenching using CNL001 (percent quench) [6] [%],YFP fluorescence quenching using ABT-126 (percent quench) (50 nM abt (ABT-126)) [%],YFP fluorescence quenching using CNL001 (percent quench) [7] [%],YFP fluorescence quenching using CNL001 (percent quench) [8] [%],YFP fluorescence quenching (percent quench) (100 nM CNL002) [%],YFP fluorescence quenching using ABT-126 (percent quench) (100 nM abt (ABT-126)) [%],YFP fluorescence quenching using ABT-126 (percent quench) (300 nM abt (ABT-126)) [%],YFP fluorescence quenching using CNL001 (percent quench) [9] [%],YFP fluorescence quenching using CNL001 (percent quench) [10] [%],YFP fluorescence quenching (percent quench) (1 uM CNL002) [%],YFP fluorescence quenching using ABT-126 (percent quench) (1 uM abt (ABT-126)) [%],YFP fluorescence quenching using ABT-126 (percent quench) (10 uM abt (ABT-126)) [%],YFP fluorescence quenching (percent quench) (1 mM ach (acetylcholine)) [%],YFP fluorescence quenching (percent quench) (3 mM ach (acetylcholine)) [%],"YFP fluorescence quenching using Varenicline, 3 nM var (first column)",other results
B1,68.362,69.495,75.078,74.193,77.481,77.205,−26.77,77,77.042,80.62,−24.64,−10.64,78.2,76.244,81.32,19.57,55.64,16.38,45.71,−0.225,"YFP fluorescence quenching (percent quench) (10 uM ach (acetylcholine)): −36.89%; YFP fluorescence quenching (percent quench) (30 uM ach (acetylcholine)): −37.78%; YFP fluorescence quenching (percent quench) (100 uM ach (acetylcholine)): −25.67%; YFP fluorescence quenching (percent quench) (300 uM ach (acetylcholine)): −18.94%; YFP fluorescence quenching using Varenicline, 3 nM var (second column): −1.954; YFP fluorescence quenching using Varenicline, 30 nM var (first column): 1.269; YFP fluorescence quenching using Varenicline, 30 nM var (second column): 5.972; YFP fluorescence quenching using Varenicline, 300 nM var (first column): 6.84; YFP fluorescence quenching using Varenicline, 300 nM var (second column): 5.943; YFP fluorescence quenching using Varenicline, 500 nM var (first column): 8.717; YFP fluorescence quenching using Varenicline, 500 nM var (second column): 6.41; YFP fluorescence quenching using Varenicline, 1 uM var (first column): 5.635; YFP fluorescence quenching using Varenicline, 1 uM var (second column): 7.068"
B2,16.321,30.264,61.978,65.343,73.006,74.903,5.15,76,76.759,70.15,25.08,66.86,76.928,76.619,77.33,66.94,78.67,−6.12,11.31,9.211,"YFP fluorescence quenching using Varenicline, 3 nM var (second column): 7.193; YFP fluorescence quenching using Varenicline, 30 nM var (first column): 7.821; YFP fluorescence quenching using Varenicline, 30 nM var (second column): 9.078; YFP fluorescence quenching using Varenicline, 300 nM var (first column): 6.933; YFP fluorescence quenching using Varenicline, 300 nM var (second column): 8.36; YFP fluorescence quenching using Varenicline, 500 nM var (first column): 5.501; YFP fluorescence quenching using Varenicline, 500 nM var (second column): 7.04; YFP fluorescence quenching using Varenicline, 1 uM var (first column): 7.174; YFP fluorescence quenching using Varenicline, 1 uM var (second column): 5.185"

# From patent US20250152742A1, “COMPOSITIONS AND METHODS FOR NEUROLOGICAL DISEASES” (Trames Bio, Inc., priority 2022, published 2025)
